# Starred links: 1 amine or outer side, 2 acyl side, 3 side chain; linkers in the order of their positions; H or OH if unused. Positions of bridges follow the written chain, without caps; N, C: chain ends. Non-standard residues stand in square brackets, D forms with d. Primed or numbered codes have the meaning given here. No end group written: not given here. *: point of attachment. PyrS2″ = (S)-3-amino-1-((pent-4-en-1-yloxy)carbonyl)pyrrolidine-3-carboxylic acid (stapling residue), C=CCCCOC(=O)N1CC[C@@](N[*:1])(C(=O)[*:2])C1; B5(16) = 2-amino-2-(pent-4-en-1-yl)hept-6-enoic acid = 2,2-bis(4-pentenyl)glycine (stitching residue), C=CCCCC(CCCC=C)(N[*:1])C(=O)[*:2]; B5(4) = 2,2-bis(4-pentenyl)glycine = 2-amino-2-(pent-4-en-1-yl)hept-6-enoic acid (stitching residue), C=CCCCC(CCCC=C)(N[*:1])C(=O)[*:2]; TfeGA = (S)-2-amino-3-((carboxymethyl)(2,2,2-trifluoroethyl)amino)propanoic acid, O=C([C@H](CN(CC(=O)[*:3])CC(F)(F)F)N[*:1])[*:2]; PyrS2(5) = (S)-3-amino-1-((alkenyloxy)carbonyl)pyrrolidine-3-carboxylic acid, carbamate stapling residue; (Morph)GlnR = (S)-2-amino-5-morpholino-5-oxopentanoic acid, O=C(CC[C@H](N[*:1])C(=O)[*:2])N1CCOCC1; B5(3) = 2,2-bis(4-pentenyl)glycine (stitching residue), C=CCCCC(CCCC=C)(N[*:1])C(=O)[*:2]; Phe(3-COOH) = N[C@@H](Cc1cccc(C(=O)O)c1)C(=O)O; 2F3MeF = Cc1cccc(C[C@H](N[*:1])C(=O)[*:2])c1F; Phe(2-CF3) = N[C@@H](Cc1ccccc1C(F)(F)F)C(=O)O; Phe(2-Cl) = N[C@@H](Cc1ccccc1Cl)C(=O)O; Bta = N[C@@H](Cc1csc2ccccc12)C(=O)O; αAllylPro = C=CC[C@@]1(C(=O)O)CCCN1; tBuAla = CC(C)(C)C[C@H](N)C(=O)O; 3Thi = N[C@@H](Cc1ccsc1)C(=O)O; S8 = C=CCCCCCC[C@](C)(N)C(=O)O; Leu(ol) = CC(C)C[C@H](N)CO; hSer = N[C@@H](CCO)C(=O)O; Nle = CCCC[C@H](N)C(=O)O; NH(CH2)6NH2 = NCCCCCCN*; Alaol = C[C@@H](CO)N*
# T1: B-cat-Halo (beta-catenin HaloTag NanoBRET construct expressed in HEK293 cells) (UniProt P35222 2-781)
# T1 sequence (looked up): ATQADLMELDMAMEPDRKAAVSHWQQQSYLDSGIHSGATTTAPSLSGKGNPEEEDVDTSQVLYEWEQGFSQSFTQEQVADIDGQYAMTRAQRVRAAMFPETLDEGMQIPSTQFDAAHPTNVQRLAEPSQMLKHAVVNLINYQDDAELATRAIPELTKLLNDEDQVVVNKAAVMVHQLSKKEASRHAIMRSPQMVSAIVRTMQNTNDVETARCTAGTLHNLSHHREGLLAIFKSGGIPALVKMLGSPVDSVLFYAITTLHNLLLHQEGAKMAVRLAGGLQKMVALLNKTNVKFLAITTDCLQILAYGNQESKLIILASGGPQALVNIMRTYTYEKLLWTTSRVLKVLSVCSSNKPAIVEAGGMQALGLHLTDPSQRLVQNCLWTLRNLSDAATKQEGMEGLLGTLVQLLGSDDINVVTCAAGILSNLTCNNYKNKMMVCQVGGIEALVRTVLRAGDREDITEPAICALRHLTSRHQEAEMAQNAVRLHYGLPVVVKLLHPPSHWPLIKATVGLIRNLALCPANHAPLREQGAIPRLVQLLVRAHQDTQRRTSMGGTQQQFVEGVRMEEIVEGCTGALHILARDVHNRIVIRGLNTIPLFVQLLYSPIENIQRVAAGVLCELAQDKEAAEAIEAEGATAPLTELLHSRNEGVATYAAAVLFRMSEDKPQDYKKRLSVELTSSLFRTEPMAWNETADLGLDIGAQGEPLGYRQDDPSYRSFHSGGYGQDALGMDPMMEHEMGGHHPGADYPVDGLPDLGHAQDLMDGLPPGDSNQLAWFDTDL
# T2: beta-catenin in DLD1 TCF/LEF luciferase reporter cells (UniProt P35222 2-781)
# T2 sequence (looked up): T1 sequence (looked up)
# T3: beta-catenin in DLD1 TCF/LEF luciferase reporter cells (UniProt P35222 1-781)
# T3 sequence (looked up): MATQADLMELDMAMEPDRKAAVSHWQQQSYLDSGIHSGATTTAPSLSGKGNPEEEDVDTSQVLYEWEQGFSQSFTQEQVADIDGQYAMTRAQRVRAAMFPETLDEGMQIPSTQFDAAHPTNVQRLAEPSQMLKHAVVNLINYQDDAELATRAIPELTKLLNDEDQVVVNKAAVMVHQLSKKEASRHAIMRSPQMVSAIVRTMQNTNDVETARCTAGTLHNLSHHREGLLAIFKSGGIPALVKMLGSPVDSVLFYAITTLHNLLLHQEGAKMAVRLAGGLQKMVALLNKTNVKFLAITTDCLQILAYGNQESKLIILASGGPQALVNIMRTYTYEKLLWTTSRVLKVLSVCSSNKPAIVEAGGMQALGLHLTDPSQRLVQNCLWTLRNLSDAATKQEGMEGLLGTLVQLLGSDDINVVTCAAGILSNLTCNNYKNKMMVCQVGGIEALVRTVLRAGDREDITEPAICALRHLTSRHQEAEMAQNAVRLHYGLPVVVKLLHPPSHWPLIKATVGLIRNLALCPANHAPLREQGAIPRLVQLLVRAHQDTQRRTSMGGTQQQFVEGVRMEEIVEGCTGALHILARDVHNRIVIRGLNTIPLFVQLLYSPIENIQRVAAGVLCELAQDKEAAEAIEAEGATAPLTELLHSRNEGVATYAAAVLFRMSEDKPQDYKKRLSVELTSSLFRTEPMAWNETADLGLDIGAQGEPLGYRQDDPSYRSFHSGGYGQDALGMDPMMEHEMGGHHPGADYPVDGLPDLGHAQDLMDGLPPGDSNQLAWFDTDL
# T4: B-cat-Halo (UniProt P35222 1-781)
# T4 sequence (looked up): T3 sequence (looked up)
# T5: beta-catenin in DLD1 TCF/LEF luciferase reporter cells (UniProt P35222 1-781)
# T5 sequence (looked up): T3 sequence (looked up)
# T6: B-cat-Halo (UniProt P35222 1-781)
# T6 sequence (looked up): T3 sequence (looked up)
# T7: beta-catenin in DLD1 TCF/LEF luciferase reporter cells (UniProt P35222 1-781)
# T7 sequence (looked up): T3 sequence (looked up)
# T8: Bcat-Halo (UniProt P35222 1-781)
# T8 sequence (looked up): T3 sequence (looked up)
# T9: beta-catenin in DLD1 TCF/LEF luciferase reporter cells (UniProt P35222 2-781)
# T9 sequence (looked up): T1 sequence (looked up)
# T10: B-cat-Halo (Nano-BRET construct expressed in HEK293 cells) (UniProt P35222 1-781)
# T10 sequence (looked up): T3 sequence (looked up)
# B1: I-873 (peptide)
# peptide: Ac-[αAllylPro]D[tBuAla][B5(3)]DDAAFN[PyrS2″][3Thi][Bta]QAA
# modifications: staple 1-4, 4-11; not fully specified; printed as Ac-PL3-Asp-Npg-B5-Asp-Asp-Ala-Ala-Phe-Asn-PyrS2-3Thi-BztA-Gln-Ala-Ala
# B2: I-882 (peptide)
# peptide: Ac-[αAllylPro]D[tBuAla][B5(3)]DDAAFN[PyrS2″][3Thi][Bta]Q-{NH(CH2)6NH2}
# modifications: staple 1-4, 4-11; not fully specified; printed as Ac-PL3-Asp-Npg-B5-Asp-Asp-Ala-Ala-Phe-Asn-PyrS2-3Thi-BztA-Gln-6AmHex
# Columns and labels:
# Assay in all cases: cell-based or functional assay
# [1] = target: T1, B-cat-Halo (beta-catenin HaloTag …)
# [2] = target: T2, beta-catenin in DLD1 TCF/LEF luciferase …
# [3] = target: T3, beta-catenin in DLD1 TCF/LEF luciferase …
# B-cat-Halo [4] = target: T4, B-cat-Halo
# [5] = target: T5, beta-catenin in DLD1 TCF/LEF luciferase …; remark: listed apart in the source
# B-cat-Halo [6] = target: T6, B-cat-Halo; remark: listed apart in the source
# [7] = target: T7, beta-catenin in DLD1 TCF/LEF luciferase …; remark: listed apart in the source
# Bcat-Halo = target: T8, Bcat-Halo
# [8] = target: T9, beta-catenin in DLD1 TCF/LEF luciferase …; remark: listed apart in the source
# [9] = target: T10, B-cat-Halo (Nano-BRET construct …)
binder,measurement,setting,value
"Ac-[αAllylPro]D[tBuAla][B5(3)]DDAAFN[PyrS2″][Phe(2-Cl)][Bta]-Alaol (staple 1-4, 4-11) [I-1081]",NanoBRET Abs IC50,[1],16.7 µM
same,DLD1 4% Abs IC50,[2],10.6 µM
"Ac-[αAllylPro]D[tBuAla][B5(16)]D[Phe(3-COOH)][Nle]AFL[PyrS2(5)][Phe(2-Cl)][Bta]Q-NH2 (staple 1-4, 4-11) [I-1685]",DLD1 4% Abs IC50,[3],1.3 µM
"Ac-[αAllylPro]D[tBuAla][B5(4)]DDAAFF[PyrS2″][Phe(2-CF3)][Bta]Q-NH2 (staple 1-4, 4-11) [I-1319]",NanoBRET Abs IC50,B-cat-Halo [4],4.2 µM
same,DLD1 4% Abs IC50,[5],2.1 µM
"Ac-[αAllylPro]D[tBuAla][B5(3)]D[TfeGA]AAF[hSer][S8][Phe(2-Cl)][Bta]Q-NH2 (staple 1-4, 4-11) [I-996]",NanoBRET Abs IC50,B-cat-Halo [6],11.3 µM
same,DLD1 4% Abs IC50,[7],3.6 µM
"Ac-[αAllylPro]D[tBuAla][B5(4)]D[Phe(3-COOH)][(Morph)GlnR]AFL[PyrS2″][2F3MeF][Bta]A-NH2 (staple 1-4, 4-11) [I-2315]",NanoBRET Abs IC50,Bcat-Halo,1.2 µM
same,DLD1 4% Abs IC50,[8],1.5 µM
"Ac-[αAllylPro]D[tBuAla][B5(4)]DDAAFN[PyrS2″][Phe(2-Cl)][Bta][Leu(ol)] (staple 1-4, 4-11) [I-1080]",NanoBRET Abs IC50,[1],> 20 µM
same,DLD1 4% Abs IC50,[2],10.4 µM
"Ac-[αAllylPro]D[tBuAla][B5(4)]DDAAFL[PyrS2″][Phe(2-CF3)][Bta]Q-NH2 (staple 1-4, 4-11) [I-1318]",NanoBRET Abs IC50,B-cat-Halo [4],4.8 µM
same,DLD1 4% Abs IC50,[5],3.9 µM
B1,NanoBRET IC50,[9],8.9 µM
"Ac-[αAllylPro]D[tBuAla][B5(3)]D[TfeGA]AAF[hSer][PyrS2″][Phe(2-Cl)][Bta][hSer]-NH2 (staple 1-4, 4-11) [I-993]",NanoBRET Abs IC50,B-cat-Halo [6],4.9 µM
same,DLD1 4% Abs IC50,[7],1.8 µM
B2,NanoBRET IC50,[9],22.5 µM
